Test results: patent publication US20130045195

Key:
[1] = target: T1, celiac disease relevant peptide QLPQQPQQF
T1 chain: QLPQQPQQF

[2] = target: T2, celiac disease relevant peptide LGQQQPFPPQQPYPQPQPF
T2 chain: LGQQQPFPPQQPYPQPQPF

[3] = target: T3, celiac disease relevant peptide PQQPQQSFPQQQPPF
T3 chain: PQQPQQSFPQQQPPF

Measured: degradation of peptide analyzed by reverse phase liquid chromatography (50 µg/mL peptide, 25 µg/mL enzyme, 37 °C, pH 4.5, 1 hr)

B1: XP-972061 (proline specific protease, LOC660762, similar to prolylcarboxypeptidase / thymus-specific serine protease) (protein)
chain: RIFRNGRMVGGNLGEPKCNCKESSIKEVQEEWFTQNLDHFNPTDETTWKQRFYSNDQFFDPKNGGPVFLMIGGEGEASIKWMTQGAWVNYAEKFGALMFQLEHRYYGKSHPTDDLSTQNLKYLTSQQALADLATFITAMNEKYSLPPDVKWIAFGGSYPGSLAAWLRFKYPHLVHGAMSASGPLLAQVDFKDYFRVIKESLATHSDDCVTAVQQGVDQIGVLLKQEIGQANLNELFKLCDPVQNSINNEKDISNLYETIADDFAGVVQYNKDNRVGSPAGANITIDVVCDIMVNQTIGPPVNRLAKVNEVLLSAYDQKCLDYNYDKMINNLRNVSWDSEASEGGRQWTYQTCTEFGFYQTSDYEPQIFGDQFSVDFFIQQCTDIFGSIYDEDFLNSATERTNTYYGGLDIEVSNVVFVHGSIDPWHALGITKTIDEEAPAIYIEGTAHCANMYPPADTDLPQLKEAREQILNLIGTWLAQ
completely proteolyzed: all assays above
